# Assay results as given in patent US20020168372A1 (published 2002).
# Target: the molecule itself
# Test: self-assembly; CsCl gradient and TEM
row,Protein,binding result
1,"HPV16 L1 protein of clone P114/16/11 (114/K) (other, Differs from prototype L1 only by His202Asp; Expressed in Sf-9 insect cells; self-assembles into VLP; also called 114K-L1; 114/K-L1) MSLWLPSEATVYLPPVPVSKVVSTDEYVARTNIYYHAGTSRLLAVGHPYFPIKKPNNNKILVPKVSGLQYRVFRIHLPDPNKFGFPDTSFYNPDTQRLVWACVGVEVGRGQPLGVGISGHPLLNKLDDTENASAYAANAGVDNRECISMDYKQTQLCLIGCKPPIGEHWGKGSPCTNVAVNPGDCPPLELINTVIQDGDMVDTGFGAMDFTTLQANKSEVPLDICTSICKYPDYIKMVSEPYGDSLFFYLRREQMFVRHLFNRAGTVGENVPDDLYIKGSGSTANLASSNYFPTPSGSMVTSDAQIFNKPYWLQRAQGHNNGICWGNQLFVTVVDTTRSTNMSLCAAISTSETTYKNTNFKEYLRHGEEYDLQFIFQLCKITLTADVMTYIHSMNSTILEDWNFGLQPPPGGTLEDTYRFVTSQAIACQKHTPPAPKEDPLKKYTFWEVNLKEKFSADLDQFPLGRKFLLQAGLKAKPKFTLGKRKATPTTSSTSTTAKRKKRKL",binds
2,"HPV16 L1 protein of clone P114/16/2 (114/B) (other, Differs from prototype L1 by Val194Ile, His202Asp and Thr266Ala; Expressed in Sf-9 insect cells; self-assembles into VLP) MSLWLPSEATVYLPPVPVSKVVSTDEYVARTNIYYHAGTSRLLAVGHPYFPIKKPNNNKILVPKVSGLQYRVFRIHLPDPNKFGFPDTSFYNPDTQRLVWACVGVEVGRGQPLGVGISGHPLLNKLDDTENASAYAANAGVDNRECISMDYKQTQLCLIGCKPPIGEHWGKGSPCTNVAVNPGDCPPLELINTIIQDGDMVDTGFGAMDFTTLQANKSEVPLDICTSICKYPDYIKMVSEPYGDSLFFYLRREQMFVRHLFNRAGAVGENVPDDLYIKGSGSTANLASSNYFPTPSGSMVTSDAQIFNKPYWLQRAQGHNNGICWGNQLFVTVVDTTRSTNMSLCAAISTSETTYKNTNFKEYLRHGEEYDLQFIFQLCKITLTADVMTYIHSMNSTILEDWNFGLQPPPGGTLEDTYRFVTSQAIACQKHTPPAPKEDPLKKYTFWEVNLKEKFSADLDQFPLGRKFLLQAGLKAKPKFTLGKRKATPTTSSTSTTAKRKKRKL",binds
